“Also recorded” adds a separate entry of the source.
Columns and labels:
[1] = Correlation between IgE and T cell responses per donor; parameters: species or system human; settings: for Donors with Responses to: Both: IgE and T cell
Source text: The correlation between T cell responses and IgE responses was further investigated by examining for each donor which allergens were recognized by IgE and T cell responses (Table V and Table IX).

[2] = system: Bla g-specific T cells (PBMC); assay: ELISPOT assays: IL-5, IFN-γ and IL-10 production by in vitro expanded PBMC of Cockroach-allergic donors; format: cell-based, human; settings: for Donors responding (%), T cell / Donors responding, T cell (number): 34 donors; for IFN-γ SFC / IL-5 SFC / Total SFC: all peptides of the protein; for Total SFC: IL-5 plus IFN-γ; for share of the response accounted for by the allergen: discussion, PBMC responses from 30 allergic donors; for Ratio IL-5/IFNγ: per protein; for % Total Response: share of total Bla g response per protein
Method: In vitro expansion of Bla g-specific T cells: PBMC were cultured in RPMI 1640 (V Scientific, Tarzana, Calif.) supplemented with 5% human serum (Cellgro, Herndon, Va.) at a density of 2×10^6 cells/ml in 24-well plates (BD Biosciences, San Jose, Calif.) and stimulated with 25 μg/ml German Cockroach (Blatella germanica; Bla g) extract (Greer, Lenoir, N.C.), or individual peptides. […] On day 14, cells were harvested and screened for reactivity against Bla g-specific peptide pools or individual peptides. ELISPOT assays: The production of IL-5, IFN-γ, and IL-10 was analyzed in ELISPOT assays. […] Cells were then incubated at a density of 1×10^5/well either with peptide pools or individual peptides (10 μg/ml), German Cockroach extract (25 μg/ml), PHA (10 μg/ml), or medium (containing 1% DMSO corresponding to the percentage of DMSO in the pools/peptides) as a control. […] Louis, Mo.). Spots were counted by computer-assisted image analysis (Zeiss, KS-ELISPOT reader, Munich, Germany). Each assay was performed in triplicate. The level of statistical significance was determined with a Student's t-test using the mean of triplicate values of the response against relevant pools or individual peptides versus the response against the DMSO control.

[3] = system: specific IgE antibody in donor sera; assay: Serological determinations: specific IgE antibody binding by (streptavidin-)ImmunoCAP; parameters: species or system human; settings: 34 donors
Method: Serological determinations: Sera were analyzed for specific IgE antibody binding to rBla g 1, rBla g 2, rBla g 4, rBla g 5 and rPer a 7 using allergen-coated streptavidin-ImmunoCAPs. Recombinant allergens were expressed in Pichia pastoris (rBla g 1, rBla g 2, rBla g 4, rPer a 7) or Escherichia coli (rBla g 5) and purified by affinity chromatography. Purified allergens were biotinylated and bound to streptavidin-coated ImmunoCAPs (Phadia US Inc., Portage, Mich.) at an optimized amount of 1 μg per ImmunoCAP. Specific IgE antibody binding to extracts from Blattella germanica (i6), Dermatophagoides pteronyssinus (d1) and D. farinae (d2), and total IgE antibody were also measured by ImmunoCAP analysis.

Molecule | Donors with Responses to: IgE Only [1] | Donors with Responses to: Neither [1] | Donors with Responses to: T Cell Only [1] | Donors with Responses to: Both [1] | T cell response pattern (IL-5 / IFN-γ), in words [2] | Donors responding (%), T cell [2] | Donors responding, T cell (number) [2] | IFN-γ SFC [2] [SFC] | IL-5 SFC [2] [SFC] | Total SFC [2] [SFC] | share of the response accounted for by the allergen [2] [%] | donors with a strong Th1 bias (ratio >5-fold) ([2]; of the 11 donors responding) | donors with a strong Th2 bias ([2]; of the 11 donors responding) | donors with balanced responses ([2]; of the 11 donors responding) | Ratio IL-5/IFNγ [2] | % Total Response [2] [%] | Donors responding (%), IgE [3] [%] | Donors responding, IgE (number) [3]
Bla g 5: German Cockroach allergen Bla g 5 (protein, listed as Blattella germanica) MAPSYKLTYCPVKALGEPIRFLLSYGEKDFEDYRFQEGDWPNLKPSMPFGKTPVLEIDGKQTHQSVAISRYLGKQFGLSGKDDWENLEIDMIVDTISDFRAAIANYHYDADENSKQKKWDPLKKETIPYYTKKFDEVVKANGGYLAAGKLTWADFYFVAILDYLNHMAKEDLVANQPNLKALREKVLGLPAIKAWVAKRPPTDL | 8 | 15 | 4 | 7 | both IL-5 and IFN-γ responses were detected | 32% | 11 | 6875 | 9637 | 16512 | 65 | 3 | 3 | 5 | 1.40 | 67.7 | 44 | 15
Bla g 1: German Cockroach (Blattella germanica) allergen Bla g 1 (protein, listed as Blattella germanica) NAIEFLNNIHDLLGIPHIPVTARKHHRRGVGITGLIDDIIAILPVDDLYALFQEKLETSPEFKALYDAIRSPEFQSIVGTLEAMPEYQNLIQKLKDKGVDVDHIIELIHQIFNIVRDTRGLPEDLQDFLALIPTDQVLAIAADYLANDAEVKAAVEYLKSDEFETIVVTVDSLPEFKNFLNFLQTNGLNAIEFLNNIHDLLGIPHIPVTGRKHLRRGVGITGLIDDIIAILPVDDLYALFQEKLETSPEFKALYDAIRSPEFQSIVETLKAMPEYQSLIQKLKDKGVDVDHIIELIHQIFNIVRDTRGLPEDLQDFLALIPIDQILAIAADYLANDAEVQAAVEYLKSDEFETIVVTVDSLPEFKNFLNFLQTNGLNAIEFINNIHDLLGIPHIPATGRKHVRRGVGINGLIDDVIAILPVDELYALFQEKLESSPEFKALYDAIRSPEFQSIVQTLKAMPEYQDLIQRLKDKGVDVDHFIELIKKLFGLSH | 3 | 27 | 3 | 1 |  | 12% | 4 | 890 | 1083 | 1973 |  |  |  |  | 1.22 | 8.1 | 12 | 4
Bla g 4: German Cockroach allergen Bla g 4 (protein, listed as Blattella germanica) AVLALCATDTLANEDCFRHESLVPNLDYERFRGSWIIAAGTSEALTQYKCWIDRFSYDDALVSKYTDSQGKNRTTIRGRTKFEGNKFTIDYNDKGKAFSAPYSVLATDYENYAIVEGCPAAANGHVIYVQIRFSVRRFHPKLGDKEMIQHYTLDQVNQHKKAIEEDLKHFNLKYEDLHSTCH | 4 | 30 | 0 | 0 | Little or no response | 0 (0) % | 0 (0) | 0 | 0 | 0 |  |  |  |  |  | 0.0 | 12 | 4
Bla g 2: German Cockroach allergen Bla g 2 (protein, listed as Blattella germanica) MIGLKLVTVLFAVATITHAAELQRVPLYKLVHVFINTQYAGITKIGNQNFLTVFDSTSCNVVVASQECVGGACVCPNLQKYEKLKPKYISDGNVQVKFFDTGSAVGRGIEDSLTISNLTTSQQDIVLADELSQEVCILSADVVVGIAAPGCPNALKGKTVLENFVEENLIAPVFSIHHARFQDGEHFGEIIFGGSDWKYVDGEFTYVPLVGDDSWKFRLDGVKIGDTTVAPAGTQAIIDTSKAIIVGPKAYVNPINEAIGCVVEKTTTRRICKLDCSKIPSLPDVTFVINGRNFNISSQYYIQQNGNLCYSGFQPCGHSDHFFIGDFFVDHYYSEFNWENKTMGFGRSVESV | 7 | 24 | 2 | 1 | Little or no response; also recorded: responses were detected only for IFN-γ, and not for IL-5 | 9% | 3 | 1553 | 0 | 1553 |  |  |  |  | <0.01 | 6.4 | 24 | 8
Bla g 7: German Cockroach allergen Bla g 7 (protein, listed as Blattella germanica) MDAIKKKMQAMKLEKDNAMDRALLCEQQARDANIRAEKAEEEARSLQKKIQQIENDLDQTMEQLMQVNAKLDEKDKALQNAESEVAALNRRIQLLEEDLERSEERLATATAKLAEASQAADESERARKILESKGLADEERMDALENQLKEARFMAEEADKKYDEVARKLAMVEADLERAEERAETGESKIVELEEELRVVGNNLKSLEVSEEKANLREEEYKQQIKTLNTRLKEAEARAEFAERSVQKLQKEVDRLEDELVHEKEKYKYICDDLDMTFTELIGN | 4 | 30 | 0 | 0 | Little or no response |  |  | 0 | 0 | 0 |  |  |  |  |  | 0.0 |  | 
Bla g 6: German Cockroach allergen Bla g 6 (protein, listed as Blattella germanica) MADEQLQLPPEQISVLRKAFDAFDREKSGSISTNMVEEILRLMGQPFNRRTLEELIDEVDADKSGRLEFDEFVTLAAKFIIEEDSEAMEKELREAFRLYDKEGNGYIPTSCLREILRELDEQLTSDELDMMIEEIDADGSGTVDFDEFMEMMTG |  |  |  |  | clear preponderance of IL-5 | 17% | 5 | 310 | 4045 | 4355 | 20 |  |  |  | 13.0 | 17.9 |  | 

— patent publication US11421006B2, “T cell epitopes from Cockroach and methods of making and using same” (LA JOLLA INSTITUTE FOR ALLERGY AND IMMUNOLOGY, priority 2012, dated 2022)
